# According to the Human Domainome abundance scans (Beltran et al. 2025):
# ± gives the uncertainty stated by the source.
# B1: Unconventional myosin-Ie, residues 1051 to 1108; numbered along this chain, Q12965 (parent)
# chain: PQVPQCKALYAYDAQDTDELSFNANDIIDIIKEDPSGWWTGRLRGKQGLFPNNYVTKI
# Variants of: B1
# Assay: abundance fitness (aPCA) (normalised: wild type 0, dead -1); higher = more abundant; growth selection in yeast, the domain comes from the species named
# Settings: Homo sapiens
row,Variant,abundance fitness
1,PQVPQCKALYAYDAQDTDELSFNANDIIDIIKEYPSGWWTGRLRGKQGLFPNNYVTKI,-0.27 ± 0.069
2,PQVPQCKALYAYDAQDTDELSFNANDIIDIIKETPSGWWTGRLRGKQGLFPNNYVTKI,-0.123 ± 0.036
3,PQVPQCKALYAYDAQDTDELSFNANDIIDIIKESPSGWWTGRLRGKQGLFPNNYVTKI,-0.126 ± 0.044
4,PQVPQCKALYAYDAQDTDELSFNANDIIDIIKEDPSGWKTGRLRGKQGLFPNNYVTKI,-0.677 ± 0.32
5,PQVPQCKALYAYDAQDTDELSFNANDIIDIIKEDPSGWYTGRLRGKQGLFPNNYVTKI,-0.074 ± 0.082
6,PQVPQCKALYAYDAQDTDELSFNANDIIDIIKEDPSGWNTGRLRGKQGLFPNNYVTKI,-0.352 ± 0.11
7,PQVPQCKALYAYDAQDTDELSFNANDIIDIIKEDPSGWLTGRLRGKQGLFPNNYVTKI,-0.512 ± 0.08
8,PQVPQCKALYAYDAQDTDELSFNANDIIDIIKEDPSGWSTGRLRGKQGLFPNNYVTKI,-0.138 ± 0.048
9,PQVPQCKALYAYDAQDTDELSFNANDIIDIIKEDPSGWCTGRLRGKQGLFPNNYVTKI,-0.316 ± 0.076
10,PQVPQCKALYAYDAQDTDELSFNANDIIDIIKEDPSGWHTGRLRGKQGLFPNNYVTKI,-0.732 ± 0.22
11,PQVPQCKALYAYDAQDTDELSFNANDIIDIIKEDPSGWPTGRLRGKQGLFPNNYVTKI,-0.559 ± 0.049
12,PQVPQCKALYAYDAQDTDELSFNANDIIDIIKEDPSGWITGRLRGKQGLFPNNYVTKI,-0.179 ± 0.061
13,PQVPQCKALYAYDAQDTDELSFNANDIIDIIKEDPSGWATGRLRGKQGLFPNNYVTKI,-0.374 ± 0.071
14,PQVPQCKALYAYDAQDTDELSFNANDIIDIIKEDPSGWMTGRLRGKQGLFPNNYVTKI,-0.35 ± 0.13
15,PQVPQCKALYAYDAQDTDELSFNANDIIDIIKEDPSGWGTGRLRGKQGLFPNNYVTKI,-0.453 ± 0.039
16,PQVPQCKALYAYDAQDTDELSFNANDIIDIIKEDPSGWETGRLRGKQGLFPNNYVTKI,-1 ± 0.22
17,PQVPQCKALYAYDAQDTDELSFNANDIIDIIKEDPSGWFTGRLRGKQGLFPNNYVTKI,-0.114 ± 0.13
18,PQVPQCKALYAYDAQDTDELSFNANDIIDIIKEDPSGWDTGRLRGKQGLFPNNYVTKI,-0.819 ± 0.15
19,PQVPQCKALYAYDAQDTDELSFNANDIIDIIKEDPSGWRTGRLRGKQGLFPNNYVTKI,-0.902 ± 0.12
20,PQVPQCKALYAYDAQDTDELSFNANDIIDIIKEDRSGWWTGRLRGKQGLFPNNYVTKI,-0.094 ± 0.04
21,PQVPQCKALYAYDAQDTDELSFNANDIIDIIKEDDSGWWTGRLRGKQGLFPNNYVTKI,-0.023 ± 0.051
22,PQVPQCKALYAYDAQDTDELSFNANDIIDIIKEDMSGWWTGRLRGKQGLFPNNYVTKI,-0.075 ± 0.072
23,PQVPQCKALYAYDAQDTDELSFNANDIIDIIKEDNSGWWTGRLRGKQGLFPNNYVTKI,-0.115 ± 0.058

row,Variant,abundance fitness
1,PQVPQCKALYAYDAQDTDELSFNANDIIDIIKEDVSGWWTGRLRGKQGLFPNNYVTKI,-0.085 ± 0.051
2,PQVPQCKALYAYDAQDTDELSFNANDIIDIIKEDLSGWWTGRLRGKQGLFPNNYVTKI,-0.29 ± 0.065
3,PQVPQCKALYAYDAQDTDELSFNANDIIDIIKEDSSGWWTGRLRGKQGLFPNNYVTKI,-0.022 ± 0.039
4,PQVPQCKALYAYDAQDTDELSFNANDIIDIIKEDCSGWWTGRLRGKQGLFPNNYVTKI,-0.066 ± 0.061
5,PQVPQCKALYAYDAQDTDELSFNANDIIDIIKEDASGWWTGRLRGKQGLFPNNYVTKI,-0.07 ± 0.047
6,PQVPQCKALYAYDAQDTDELSFNANDIIDIIKEDISGWWTGRLRGKQGLFPNNYVTKI,-0.144 ± 0.081
7,PQVPQCKALYAYDAQDTDELSFNANDIIDIIKEDQSGWWTGRLRGKQGLFPNNYVTKI,-0.018 ± 0.049
8,PQVPQCKALYAYDAQDTDELSFNANDIIDIIKEDHSGWWTGRLRGKQGLFPNNYVTKI,-0.623 ± 0.24
9,PQVPQCKALYAYDAQDTDELSFNANDIIDIIKEDYSGWWTGRLRGKQGLFPNNYVTKI,-0.266 ± 0.1
10,PQVPQCKALYAYDAQDTDELSFNANDIIDIIKEDKSGWWTGRLRGKQGLFPNNYVTKI,-0.027 ± 0.049
11,PQVPQCKALYAYDAQDTDELSFNANDIIDIIKEDFSGWWTGRLRGKQGLFPNNYVTKI,-0.329 ± 0.12
12,PQVPQCKALYAYDAQDTDELSFNANDIIDIIKEDWSGWWTGRLRGKQGLFPNNYVTKI,-0.231 ± 0.05
13,PQVPQCKALYAYDAQDTDELSFNANDIIDIIKEDGSGWWTGRLRGKQGLFPNNYVTKI,-0.021 ± 0.041
14,PQVPQCKALYAYDAQDTDELSFNANDIIDIIKEDPSKWWTGRLRGKQGLFPNNYVTKI,-0.728 ± 0.082
15,PQVPQCKALYAYDAQDTDELSFNANDIIDIIKEDPSAWWTGRLRGKQGLFPNNYVTKI,-0.573 ± 0.043
16,PQVPQCKALYAYDAQDTDELSFNANDIIDIIKEDPSPWWTGRLRGKQGLFPNNYVTKI,-0.54 ± 0.095
17,PQVPQCKALYAYDAQDTDELSFNANDIIDIIKEDPSTWWTGRLRGKQGLFPNNYVTKI,-0.375 ± 0.09
18,PQVPQCKALYAYDAQDTDELSFNANDIIDIIKEDPSIWWTGRLRGKQGLFPNNYVTKI,-0.52 ± 0.24
19,PQVPQCKALYAYDAQDTDELSFNANDIIDIIKEDPSCWWTGRLRGKQGLFPNNYVTKI,-0.584 ± 0.059
20,PQVPQCKALYAYDAQDTDELSFNANDIIDIIKEDPSQWWTGRLRGKQGLFPNNYVTKI,-0.448 ± 0.099
21,PQVPQCKALYAYDAQDTDELSFNANDIIDIIKEDPSWWWTGRLRGKQGLFPNNYVTKI,-0.677 ± 0.13
22,PQVPQCKALYAYDAQDTDELSFNANDIIDIIKEDPSVWWTGRLRGKQGLFPNNYVTKI,-0.781 ± 0.041
